From US8084228B2, “Nogo-B receptor antagonists” (Yale University, priority 2006, dated 2011)
“Also recorded” adds a separate entry of the source. Each block holds one molecule with its values, some of them ahead of it. d = 2'-deoxy (DNA)

Experiments:
[1] = system: NgBR protein; experiment: NgBR protein level after siRNA transfection of HUVEC; assay type: cell-based, human; conditions: 72 hours after transfection
Protocol: Single NgBR cDNA clones were isolated by sib selection and sequenced. A NgBR-HA was created in pIRESneo vector (BD, Palo Alto, Calif.), with the HA tag at the carboxy terminus. To access the physical interaction of NgBR with Am-Nogo-B, 50 μg of solubilized extracts of CHO cells expressing control vector (pIRESneo) or NgBR-HA was incubated with 25 μg of purified Am-Nogo-B or buffer for 2 hours at room temperature. The HA-tagged NgBR was immunoisolated with anti-HA immunobeads (Roche, Indianapolis, Ind.) and associated proteins analyzed by Western blotting. For the Western blots, expression of NgBR-HA was detected by using anti-HA (Roche) and NgBR (Imgenex), respectively, and beta-actin (Sigma) or Hsp90 (BD Biosciences-Pharmingen) was used to control for loading.
(§1) NgBR siRNA oligonucleotides (SEQ ID NOS:2-5) with 3′ dTdT overhangs were synthesized by Qiagen. Control siRNA in experiments refers to a nonsilencing (NS) siRNA (NS forward: UUCUCCGAACGUGUCACGU, SEQ ID NO:7; NS reverse: ACGUGACACGUUCGGAGAA, SEQ ID NO:8) designed and synthesized by Qiagen. HUVEC and CHO stable cell lines were transfected with siRNA by using Oligofectamine. Quantification of NgBR mRNA and protein, ligand binding assay, and migration assay were performed at 72 hours after transfection.

[2] = system: HUVEC; experiment: Tube formation of HUVEC in 3-D collagen cultures (total network length); assay type: cell-based, human; conditions: Am-Nogo-B 80 nM, HUVEC treated with siRNA
Protocol: HUVEC were resuspended (final concentration of 1×10^6) in a mixture containing rat tail type I collagen (1.5 mg/mL) 1/10 volume of 10×M199 and 1 M Hepes, neutralized with NaOH. Droplets (0.1 mL each) of the cell/collagen mixture were placed in cell culture dishes and allowed to polymerize for 15 minutes at 37° C. Growth medium containing either vehicle or agonist was then added to each well. HUVEC were allowed to form tube-like structures for 1-2 days. To evaluate tube formation in 3-D cultures, cells were photographed using the program OPENLAB (Improvision) and total-network length, defined as an elongation of cell into tube-like structures typically seen in 3-D cultures, was quantified in five fields for each replicate per experiment by using the measurement tools provided with OPENLAB.

[3] = system: HUVEC; experiment: AP-Am-Nogo-B binding to HUVEC after siRNA transfection; assay type: cell-based, human; conditions: 72 hours after siRNA transfection
Protocol: (§2) To detect AP-Am-Nogo-B binding, cultures were washed with Hanks' balanced salt solution (HBSS) containing 20 mM HEPES, pH 7.5, and 1 mg/mL BSA (HBH). The plates were then incubated with AP-Am-Nogo-B in DMEM containing 20 mM Hepes, pH 7.5, and 1 mg/mL BSA for 2 hours at 4° C. The bound AP-Am-Nogo-B was detected by using the Blue Substrate kit (Vector Laboratories). The blue staining was examined by using the ODYSSEY Infrared Imaging System (Li-Cor, Lincoln, Nebr.) and confirmed by microscopy. Alternatively, the bound AP-Am-Nogo-B was extracted with Triton X-100, and AP activity was colorimetrically quantified by using p-nitrophenyl phosphate (Sigma) as substrate after heat inactivation of endogenous AP. Non-specific binding was determined by measuring binding in the presence of a 100-fold molar excess of recombinant Am-Nogo-B lacking the AP fusion protein. Specific binding was determined by subtracting the non-specific binding from total binding. For determination of apparent Kd, the binding of AP-Am-Nogo-B was measured in triplicate as described above and the Kd value was quantified by using the Scatchard plot program of GraphPad PRISM (one-site binding, linear regression) using the ratio of bound ligand to free ligand as the y axis and bound ligand (pM) as the x axis.
as §1

[4] = system: HUVEC; experiment: Am-Nogo-B-mediated chemotaxis of HUVEC after siRNA transfection; assay type: cell-based, human; conditions: 72 hours after siRNA transfection
Protocol: (§3) Cell migration was examined in modified Boyden chambers using 10 nM each of purified recombinant AP, AP fusion of Nogo-66 (AP-Nogo-66) or Am-Nogo-B. The transwell inserts (Costar transwell inserts; Corning) were coated with a solution of 0.1% gelatin (Sigma) in PBS at 4° C. overnight and then air-dried. VEGF at 50 ng/mL (1.1 nM) or recombinant Am-Nogo-B at various concentrations dissolved in medium 199 containing 0.1% BSA was added in the bottom chamber of the Boyden apparatus. HUVEC (200,000 cells) suspended in a 100 μL aliquot of medium 199 containing 0.1% BSA was added to the upper chamber. After 5 hours incubation, cells on both sides of the membrane were fixed and stained with a Diff-Quik staining kit (Baxter Healthcare, Miami, Fla.). The average number of cells from five randomly chosen high-power (×400) fields on the lower side of the membrane was counted.
as §1

[5] = system: NgBR mRNA; experiment: NgBR mRNA by quantitative PCR after siRNA transfection of HUVEC; assay type: cell-based, human; conditions: 72 hours after transfection, normalized to 18S
Protocol: as §1
Total RNA from cells was isolated by using the RNeasy kit (Qiagen). Reverse transcription was then performed by using 100 ng of RNA and the Superscript First-Strand Synthesis System kit (Invitrogen). Real-time PCR analysis was done with the iCycler iQ detection system using the iQ SYBR green Supermix kit (Bio-Rad). The NgBR mRNA level was normalized by housekeeping gene 18S. The following primers were used for NgBR: forward, 5′-[…]-3′ (SEQ ID NO:9) and reverse, 5′-[…]-3′ (SEQ ID NO:10). The following primers were used for 18S: forward, 5′-[…]-3′ (SEQ ID NO:11) and reverse, 5′-[…]-3′ (SEQ ID NO:12).

[6] = target: T1, full-length NgBR (Homo sapiens, UniProt Q96E22); experiment: AP-Am-Nogo-B binding after S2 siRNA in cells expressing the full-length NgBR; assay type: cell-based
T1 construct: expressed in transfected cells
T1 sequence (Q96E22 1-293): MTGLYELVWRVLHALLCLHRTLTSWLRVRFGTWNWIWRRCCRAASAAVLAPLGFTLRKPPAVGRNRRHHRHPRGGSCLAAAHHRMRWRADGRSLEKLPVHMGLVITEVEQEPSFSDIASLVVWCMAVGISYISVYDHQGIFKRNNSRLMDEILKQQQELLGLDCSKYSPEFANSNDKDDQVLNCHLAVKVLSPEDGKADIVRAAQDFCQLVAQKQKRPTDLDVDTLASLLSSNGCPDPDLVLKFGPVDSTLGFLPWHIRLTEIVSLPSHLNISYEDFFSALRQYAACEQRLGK
Protocol: as §2
NgBR siRNA oligonucleotides (SEQ ID NOS:2-5) with 3′ dTdT overhangs were synthesized by Qiagen. […]

[7] = system: HUVEC; experiment: HUVEC migration in modified Boyden chambers; assay type: cell-based, human; conditions: 10 nM purified recombinant protein, 5 hours
Protocol: The migratory response of human umbilical vein endothelial cells (HUVEC) in response to a gradient of recombinant, purified alkaline phosphatase (AP) fusion protein expressing Am-Nogo-B or a recombinant purified Am-Nogo-B was examined. HUVEC were cultured in M199 with 20% FBS and endothelial cell growth supplement (ECGS).
as §3

[8] = system: HUVEC; experiment: Binding of AP fusion proteins to the surface of HUVEC; set-up: species or system human; conditions: HUVEC (FIGS. 12, 15)
Protocol: as §2

[9] = target: T2, NgBR (Homo sapiens, UniProt Q96E22); experiment: AP fusion protein binding to COS cells transfected with the isolated NgBR cDNA; set-up: an isolated cDNA encoding NgBR is 2,636 base pairs encoding an open reading frame of 293 amino acids; expressed in transfected cells; host or cells: COS-7 (A4); conditions: COS cells (FIG. 6)
T2 sequence (Q96E22 1-293): T1 sequence (Q96E22 1-293)
Protocol: as §2
(§4) For expression cloning of Am-Nogo-B receptor, pools of 5,000 arrayed clones from a human heart cDNA library (OriGene Technologies, Rockville, Md.) were transfected into COS-7 cells, and AP-Am-Nogo-B binding was assessed by using AP versus AP-Am-Nogo-B binding and detection of the AP product by near-infrared cell imaging (Li-Cor, Lincoln, Nebr.) or AP activity assays.
Single NgBR cDNA clones were isolated by sib selection and sequenced. […] The HA-tagged NgBR was immunoisolated with anti-HA immunobeads (Roche, Indianapolis, Ind.) and associated proteins analyzed by Western blotting. For the Western blots, expression of NgBR-HA was detected by using anti-HA (Roche) and NgBR (Imgenex), respectively, and beta-actin (Sigma) or Hsp90 (BD Biosciences-Pharmingen) was used to control for loading.

[10] = system: CHO cells; experiment: AP fusion protein binding to untransfected CHO cells
Protocol: as §2

[11] = target: T3, Nogo receptor (Homo sapiens, UniProt Q9BZR6); experiment: AP fusion protein binding to COS cells transfected with cDNA encoding the Nogo receptor; conditions: COS cells (FIG. 6)
T3 construct: expressed in transfected cells; host or cells: COS-7
T3 sequence (Q9BZR6 27-447): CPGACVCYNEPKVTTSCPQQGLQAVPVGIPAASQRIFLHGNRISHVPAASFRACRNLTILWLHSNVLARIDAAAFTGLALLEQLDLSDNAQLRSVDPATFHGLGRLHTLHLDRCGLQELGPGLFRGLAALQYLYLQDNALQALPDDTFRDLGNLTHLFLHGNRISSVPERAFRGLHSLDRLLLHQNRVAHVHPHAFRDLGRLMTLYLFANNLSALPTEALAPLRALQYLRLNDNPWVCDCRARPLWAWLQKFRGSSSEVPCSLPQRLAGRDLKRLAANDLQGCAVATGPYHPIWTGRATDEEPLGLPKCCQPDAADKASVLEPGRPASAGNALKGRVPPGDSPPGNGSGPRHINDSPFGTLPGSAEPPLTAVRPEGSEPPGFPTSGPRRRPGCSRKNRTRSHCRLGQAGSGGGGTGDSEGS
Protocol: as §2, §4

[12] = target: T2, NgBR; experiment: AP fusion protein binding to CHO cells expressing NgBR; set-up: an isolated cDNA encoding NgBR is 2,636 base pairs encoding an open reading frame of 293 amino acids; expressed in transfected cells; conditions: for surface binding of AP fusion domains to NgBR-expressing cells: CHO cells expressing NgBR (FIGS. 11, 14); for binding to CHO cells stably expressing NgBR: increasing concentrations, 2 hours at 4° C.
Protocol: as §2
A recombinant AP-Am-Nogo-B fusion protein was used to screen a cDNA expression library from human heart (500,000 independent clones) transfected into COS or CHO cells using Lipofectamine 2000 (Invitrogen). COS-7 cells were cultured in high-glucose DMEM with 10% FBS. CHO cells were cultured in MEM-α with 5% FBS.

Molecule: S2: siRNA targeting the 3' untranslated region of NgBR; forward GGAAAUACAUAGACCUACA, reverse UGUAGGUCUAUGUAUUUCC (SEQ ID NO: 4, 5) (3' dTdT, sugars by position and backbone not given here)
NgBR protein level [1]: reduced
Am-Nogo-B-stimulated increase in tube formation after siRNA [2]: attenuated
binding of AP-Am-Nogo-B to HUVEC [3]: reduced
Am-Nogo-B-mediated chemotaxis of HUVEC [4]: abolished
level of NgBR mRNA [5]: reduced
binding of AP-Am-Nogo-B in cells expressing the full-length NgBR [6]: reduced

Molecule: S1: siRNA targeting the coding region of NgBR mRNA; forward CCAGAAUUUGCAAAUAGUA, reverse UACUAUUUGCAAAUUCUGG (SEQ ID NO: 2, 3) (3' dTdT, sugars by position and backbone not given here)
NgBR protein level [1]: down-regulates
binding of AP-Am-Nogo-B to HUVEC [3]: reduces
level of NgBR mRNA [5]: downregulates

surface binding of AP fusion domains to HUVEC [8]: did not bind
binding to COS cells transfected with the isolated NgBR cDNA [9]: not
binding to COS cells transfected with Nogo receptor cDNA [11]: do not bind
surface binding of AP fusion domains to NgBR-expressing cells [12]: did not bind
binding to CHO cells stably expressing NgBR [12]: not
B1: alkaline phosphatase (protein, UniProt P05187 23-506, looked up)
Alkaline phosphatase, …: IIPVEEENPDFWNREAAEALGAAKKLQPAQTAAKNLIIFLGDGMGVSTVTAARILKGQKKDKLGPEIPLAMDRFPYVALSKTYNVDKHVPDSGATATAYLCGVKGNFQTIGLSAAARFNQCNTTRGNEVISVMNRAKKAGKSVGVVTTTRVQHASPAGTYAHTVNRNWYSDADVPASARQEGCQDIATQLISNMDIDVILGGGRKYMFRMGTPDPEYPDDYSQGGTRLDGKNLVQEWLAKRQGARYVWNRTELMQASLDPSVTHLMGLFEPGDMKYEIHRDSTLDPSLMEMTEAALRLLSRNPRGFFLFVEGGRIDHGHHESRAYRALTETIMFDDAIERAGQLTSEEDTLSLVTADHSHVFSFGGYPLRGSSIFGLAPGKARDRKAYTVLLYGNGPGYVLKDGARPDVTESESGSPEYRQQSAVPLDEETHAGEDVAVFARGPQAHLVHGVQEQTFIAHVMAFAACLEPYTACDLAPPAGTTD
notes: purified recombinant alkaline phosphatase, control for AP fusion proteins
HUVEC migration [7]: does not promote
binding to CHO cells [10]: minimal binding

surface binding of AP fusion domains to HUVEC [8]: did
binding to COS cells transfected with Nogo receptor cDNA [11]: do not bind
surface binding of AP fusion domains to NgBR-expressing cells [12]: did
B2: AP-Am-Nogo-B: purified alkaline phosphatase (AP) fusion protein with residues 1-200 at the amino terminus of Nogo-B (protein)
chain: MEDLDQSPLVSSSDSPPRPQPAFKYQFVREPEDEEEEEEEEEEDEDEDLEELEVLERKPAAGLSAAPVPTAPAAGAPLMDFGNDFVPPAPRGPLPAAPPVAPERQPSWDPSPVSSTVPAPSPLSAAAVSPSKLPEDDEPPARPPPPPPASVSPQAEPVWTPPAPAPAAPPSTPAAPKRRGSSGSVVVDLLYWRDIKKTGV
modifications: left off: small tags and cut ends; large carriers
notes: purified alkaline phosphatase (AP) fusion protein with residues 1-200 at the amino terminus of Nogo-B
binding to CHO cells [10]: minimal binding
binding to CHO cells stably expressing NgBR [12]: permits the binding; also recorded: permitted binding
